In the supplement of paper PMC7877785:
± gives the uncertainty stated by the source.

Test: self-splicing fitness, log relative to wild type (ln ratio); higher = more splicing; Tetrahymena group I intron in knt gene, E. coli kanamycin selection, DiMSum; sequences stand for … in CUCUCU…GGAGGGAAAAGUUAUCAGGCAUGCACCUGGUAGCUAGUCUUUAAACCAAUAGAUUGCAUCGGUUUAAAAGGCAAGACCGUCAAAUUGCGGGAAAGGGGUCAACAGCCGUUCAGUACCAAGUCUCAGGGGAAACUUUGAGAUGGCCUUGCAAAGGGUAUGGUAAUAAGCUGACGGACAUGGUCCUAACCACGCAGCCAAGUCCUAAGUCAACAGAUCUUCUGUUGAUAUGGAUGCAGUUCACAGACUAAAUGUCGGUCGGGGAAGAUGUAUUCUUCUCAUAAGAUAUAGUCGGACCUCUCCUUAAUGGGAGCUAGCGGAUGAAGUGAUGCAACACUGGAGCCGCUGGGAACUAAUUUGUAUGCGAAAGUAUAUUGAUUAGUUUUGGAGUACUCGUGGUCG
How it was run: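 Colonies from six replicate transformations of E. coli BL21(DE3) were pooled and amplicon-sequenced on an Illumina HiSeq 2500. The library placed an intron with all eight P1ex-region nucleotides randomised inside the knt kanamycin-resistance gene on pET-22b(+), and cells grew overnight at 37°C or 30°C on LB agar with or without 25 μg/mL kanamycin (plus 100 μg/mL carbenicillin, 50 μM IPTG, 0.2% rhamnose). Fitness is the DiMSum error-weighted combination of wild-type-normalised replicate fold changes, kanamycin versus none.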

Sequence	self-splicing fitness (ln) (30 °C)	self-splicing fitness (ln) (37 °C)
GGUAAGCAAUAUUACGCUGC	-2.94 ± 0.2	–
GGUAAGCAAUAUUACGCUUC	-4.14 ± 0.42	-1.58 ± 0.35
GGUAAGCAAUAUUACGGAAG	-3.03 ± 0.18	-2.56 ± 0.26
GGUAAGCAAUAUUACGGAGC	-2.99 ± 0.2	-1.98 ± 0.22
GGUAAGCAAUAUUACGGCAA	-0.143 ± 0.12	-0.18 ± 0.15
GGUAAGCAAUAUUACGGCCG	-0.712 ± 0.12	-0.544 ± 0.17
GGUAAGCAAUAUUACGGCUU	-0.104 ± 0.075	0.352 ± 0.11
GGUAAGCAAUAUUACGGUCU	0.187 ± 0.083	-0.0802 ± 0.087
GGUAAGCAAUAUUACGUAAC	-1.86 ± 0.13	-0.278 ± 0.15
GGUAAGCAAUAUUACGUAAU	-1.21 ± 0.096	-0.781 ± 0.12
GGUAAGCAAUAUUACGUACA	-0.648 ± 0.1	0.294 ± 0.14
GGUAAGCAAUAUUACGUAGG	-2.78 ± 0.19	-3.5 ± 0.28
GGUAAGCAAUAUUACGUCUC	-1.04 ± 0.13	-1.27 ± 0.16
GGUAAGCAAUAUUACGUCUG	-1.85 ± 0.14	-1.51 ± 0.1
GGUAAGCAAUAUUACGUUUC	-3.52 ± 0.27	0.249 ± 0.15
GGUCAGCAAUAUUACGAACA	-0.818 ± 0.14	-0.749 ± 0.17
GGUCAGCAAUAUUACGACAA	-0.264 ± 0.062	0.179 ± 0.093
GGUCAGCAAUAUUACGACCG	-1.89 ± 0.17	-1.26 ± 0.19
GGUCAGCAAUAUUACGAGAC	-2.27 ± 0.23	-1.29 ± 0.31
GGUCAGCAAUAUUACGAGGA	–	-1.73 ± 0.36
GGUCAGCAAUAUUACGAUUC	-0.716 ± 0.079	-0.325 ± 0.11
GGUCAGCAAUAUUACGCAUC	-0.704 ± 0.091	-0.125 ± 0.1
GGUCAGCAAUAUUACGCCAU	-3.36 ± 0.3	-0.853 ± 0.17
GGUCAGCAAUAUUACGCGCA	-0.219 ± 0.13	-0.27 ± 0.12
GGUCAGCAAUAUUACGCGUU	-0.112 ± 0.084	0.0966 ± 0.13
GGUCAGCAAUAUUACGCUCG	-0.0238 ± 0.095	0.341 ± 0.12

Sequence	self-splicing fitness (ln) (30 °C)	self-splicing fitness (ln) (37 °C)
GGUCAGCAAUAUUACGCUCU	-1.58 ± 0.2	0.397 ± 0.34
GGUCAGCAAUAUUACGCUUG	-0.955 ± 0.07	-0.556 ± 0.096
GGUCAGCAAUAUUACGGAUC	-2.95 ± 0.22	-0.0513 ± 0.21
GGUCAGCAAUAUUACGGCAC	-0.775 ± 0.13	0.566 ± 0.16
GGUCAGCAAUAUUACGGCCU	-2.84 ± 0.29	-2.34 ± 0.45
GGUCAGCAAUAUUACGGGAC	-1.72 ± 0.15	-2.96 ± 0.4
GGUCAGCAAUAUUACGGGUA	-1.57 ± 0.12	-0.686 ± 0.1
GGUCAGCAAUAUUACGGUAC	0.214 ± 0.15	0.298 ± 0.17
GGUCAGCAAUAUUACGGUCC	-3.1 ± 0.39	-1.81 ± 0.37
GGUCAGCAAUAUUACGUCGG	-3.9 ± 0.36	-0.891 ± 0.19
GGUCAGCAAUAUUACGUUUA	-1.23 ± 0.1	-0.167 ± 0.1
GGUGAGCAAUAUUACGAACA	-0.64 ± 0.34	0.394 ± 0.47
GGUGAGCAAUAUUACGAAGU	-2.25 ± 0.23	-1.67 ± 0.35
GGUGAGCAAUAUUACGACAU	-1.27 ± 0.016	-0.567 ± 0.035
GGUGAGCAAUAUUACGACGA	-1.32 ± 0.22	-0.954 ± 0.34
GGUGAGCAAUAUUACGACUA	-0.202 ± 0.17	-0.327 ± 0.17
GGUGAGCAAUAUUACGAGCA	-0.652 ± 0.23	-1.1 ± 0.29
GGUGAGCAAUAUUACGAUAA	-1.22 ± 0.47	–
GGUGAGCAAUAUUACGAUUC	-0.904 ± 0.089	0.137 ± 0.11
GGUGAGCAAUAUUACGCACU	-3.35 ± 0.44	-2.9 ± 0.43
GGUGAGCAAUAUUACGGCGC	-0.434 ± 0.13	-0.198 ± 0.19
GGUGAGCAAUAUUACGGGUA	-2.58 ± 0.31	-1.64 ± 0.38
GGUGAGCAAUAUUACGGUAC	-1.95 ± 0.13	-1.4 ± 0.18
GGUGAGCAAUAUUACGGUCA	-1.77 ± 0.32	-1.79 ± 0.38
GGUGAGCAAUAUUACGUCAU	-3.97 ± 0.19	-2.76 ± 0.31
GGUGAGCAAUAUUACGUCUA	-1.91 ± 0.16	-1.42 ± 0.15

Sequence	self-splicing fitness (ln) (30 °C)	self-splicing fitness (ln) (37 °C)
GGUGAGCAAUAUUACGUGGC	–	-2.59 ± 0.33
GGUGAGCAAUAUUACGUGUA	-2.8 ± 0.25	-3.22 ± 0.3
GGUUAGCAAUAUUACGAAGC	-0.991 ± 0.17	-1.24 ± 0.18
GGUUAGCAAUAUUACGAAUU	0.0573 ± 0.13	-0.482 ± 0.16
GGUUAGCAAUAUUACGACAU	0.0748 ± 0.014	0.332 ± 0.034
GGUUAGCAAUAUUACGACCU	-1.72 ± 0.35	-0.0941 ± 0.33
GGUUAGCAAUAUUACGAGGG	-3.05 ± 0.21	-2.28 ± 0.34
GGUUAGCAAUAUUACGAGUG	-2.59 ± 0.35	-1.39 ± 0.19
GGUUAGCAAUAUUACGCAAA	-1.62 ± 0.39	-2.21 ± 0.31
GGUUAGCAAUAUUACGCCUG	-2.89 ± 0.38	-2.7 ± 0.48
GGUUAGCAAUAUUACGCGCA	1.25 ± 0.28	0.766 ± 0.34
GGUUAGCAAUAUUACGGCUU	-0.26 ± 0.082	1.05 ± 0.096
GGUUAGCAAUAUUACGGUAC	-1.21 ± 0.11	-0.6 ± 0.15
GGUUAGCAAUAUUACGUCAA	-0.285 ± 0.11	-0.43 ± 0.13
GGUUAGCAAUAUUACGUCGA	-1.43 ± 0.14	-0.492 ± 0.14
GGUUAGCAAUAUUACGUGGC	-3.21 ± 0.34	-1.64 ± 0.19
GGUUAGCAAUAUUACGUGUG	-2.43 ± 0.12	-1.56 ± 0.11
GGUUAGCAAUAUUACGUUGA	-2 ± 0.2	-1.54 ± 0.17
GUAAAGCAAUAUUACGAAAA	-1.52 ± 0.15	0.0796 ± 0.28
GUAAAGCAAUAUUACGAAAG	-2.91 ± 0.19	-1.33 ± 0.19
GUAAAGCAAUAUUACGAAGG	-3.13 ± 0.13	-1.92 ± 0.17
GUAAAGCAAUAUUACGAAUA	-1.68 ± 0.093	-0.495 ± 0.15
GUAAAGCAAUAUUACGAGAG	-3.16 ± 0.16	-3.37 ± 0.23
GUAAAGCAAUAUUACGAGCC	-2.51 ± 0.33	-2.56 ± 0.26
GUAAAGCAAUAUUACGAGGU	-3.07 ± 0.13	-1.83 ± 0.24
